Columns and labels:
western corn rootworm = assay: Field trial of T1 maize plants, corn rootworm root injury (CRWNIS); format: in vivo, Diabrotica virgifera; conditions: two locations in Iowa; 750 non-diapausing western corn rootworm eggs per plant; scale 0.00 no injury to 3.00 three entire nodes pruned
Protocol: T1 plants expressing optAxmi184 were tested at two locations in Iowa. Each experimental unit consisted of a one-row plot of maize measuring approximately 15 feet. Plots were arranged using a randomized complete block design with four replications. Efficacy against western corn rootworm was determined by evaluating up to eight maize roots per plot. Inbreds B110 and B116, a CRW-susceptible commercial hybrid, and two CRW control standards: B110 with a standard granular insecticide (FORCE® 3G), and B110 with an insecticidal seed treatment (PONCHO® 1250) were used as controls.
Fields were prepared for this study using cultural practices similar to those used in commercial maize fields in Iowa. Plants not containing transgenic events for CRW control were identified and excluded from the study using an application of 16 oz/A of glyphosate when plants were at the V1 leaf stage. Five to ten days later, the number of positive and negative plants in each plot was recorded. Negative plants were then removed and the remaining positive plants were thinned to 8 plants per row. All plants were then manually infested with non-diapausing western corn rootworm eggs. The eggs were suspended in a dilute agar solution and calibrated to deliver 750 eggs per plant for all plots.
Roots were dug, washed and evaluated for CRW injury after a period of larval feeding. […]

[1] = tested on: western corn rootworm (Diabrotica virgifera); assay: Root damage in T0 transgenic maize in root-trainer containers infested with western corn rootworm eggs (CRWNIS); format: in vivo; conditions: T0 maize plants containing optAxmi184 and expressing detectable AXMI184; ~125 non-diapausing eggs per plant; assessed after fifteen days; versus control plants infested in the same manner; FIG. 1
From the text: Transgenic maize plants transformed with an optimized version of Axmi184 (optAxmi184, set forth herein as SEQ ID NO:2) were obtained by Agrobacterium-mediated transformation. Plants shown by PCR analysis to contain the appropriate Axmi184 construct were selected, and transferred to root trainer containers.
T0 plants containing optAxmi184 were transplanted to root-trainer containers and propagated for approximately three weeks. Individual plants were then each infested with ˜125 non-diapausing western corn rootworm (Diabrotica virgifera) eggs. Plants were analyzed for expression of AXMI184 protein by Western blot analysis using an anti-AXMI184 antibody. Plants expressing detectable amounts of AXMI184 were selected for analysis. After fifteen days, the amount of root damage in each plant was assessed using the Node Injury Scale (CRWNIS) (Oleson et al. 2005. J. Econ Entomol. 98(1): 1-8), where 0.00 is no injury and 3.00 is all roots pruned to within 1.5 inches of the stalk on three entire nodes.

B1: AXMI184: Pesticidal protein SEQ ID NO:3 from Bacillus thuringiensis strain ATX14775; expressed in maize from optimized gene optAxmi184 (SEQ ID NO:2) (protein, listed as Bacillus thuringiensis)
chain: MNMNKNNTKLSARALPSFIDYFNGIYGFATGIKDIMNMIFKTDTGGDLTLDEILKNQQLLNDISGKLDGVNGSLNDLIAQGNLNTELSKEILKIANEQNQVLNDVNNKLDAINTMLHVYLPKITSMLSDVMKPNYALSMQIEYLSRQLQEISDKLDIINVNVLINSTLTEITPAYQWIKYVNEKFEELTFATETTLKVKNDSASADILDELTELTELAKSVTKNDVDGFEFYLNTFHDVMVGNNLFGRSTLKTASELIAKENVKTSGSEVGNVYNFLVVLTALQAKAFLTLTTCRKLLGLADIDYTSIMNEHLNKEKEEFRVNILPILSNTFSNPNYAKVKGSDEDAKMIVEAKPGHALVGFEISNDSMTVLKVYEAKLKQNYQVDKDSLSEVIYGDMDKLLCPDQSEKIYYTNNIVFPNEYVITKIDFTKKMKTLRYEVTANSYDSSTGEIDLNKKKVESSKAEYRTLSANNDGVYMPLGVISETFLTPINGFGLQADENSRLITLTCKSYLRELLLATDLSNKETKLIVPPNSFISNIVENGSIEEGHLEPWKANNKNAYVDHTGGVNGTKALYVHEDGGVSQFMGDKLKPKTEYVIQYTVKGKPSIHLKDENTGYILYEDTNNDLEDFQTITKRFTTGTDLMRVYLILKSQSGHEAWGDNFTILEIKPAEALVSPELINPNSWITTQGASISGDKLFISLGTNGTFRQNLSLNSYSTYSISFTASGPFNVTVRNSREVLYERNNLMSSTSHISGEFKTESNNTGLYVELSRRSGGAGHISFENISIK
Average CRWNIS (western corn rootworm): 0.12 | amount of root damage, Node Injury Scale (CRWNIS) [1]: lower root damage than control plants

From patent US20150376243A1, “Use of AXMI184 for the Control of Rootworm Insects” (ATHENIX CORP., priority 2013, published 2015)
